Laboratory results reported in patent publication US20210388087A1 (Chugai, published 2021).
Residue numbers refer to the chain shown, from its start. Numbers in names are those of the source. Blank lines part the entries; values can stand above or below the binder they belong to.

Target: T1, CD3 epsilon homodimer protein (UniProt P07766 23-126)
T1 construct: immobilized on Sensor chip CM4 by amine coupling; also called CD3 (CD3 epsilon)
Test: SPR (Biacore T200), CD3 epsilon homodimer on CM4 chip, one-arm antibody as analyte, 25 C;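 also: homodimer attached to the sensor surface via amine coupling, HBS-EP+ used as running buffer during binding runs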

T1 sequence (P07766 23-126): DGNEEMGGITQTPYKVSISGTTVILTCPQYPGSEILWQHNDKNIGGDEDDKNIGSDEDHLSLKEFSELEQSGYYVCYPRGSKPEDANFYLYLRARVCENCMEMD

- ratio of amounts bound (altered form / CE115HA000): 0.68
B1: CE115HA000 K52bS one-arm antibody (antibody, human IgG1, kappa, L234A L235A, N297A, name in Kabat numbering)
heavy: QVQLVESGGGVVQPGRSLRLSCAASGFTFSNAWMHWVRQAPGKGLEWVAQIKASSNNYATYYAESVKGRFTISRDDSKNSLYLQMNSLKTEDTAVYYCRYVHYGAYYGVDAWGQGTTVTVSSASTKGPSVFPLAPSSKSTSGGTAALGCLVKDYFPEPVTVSWNSGALTSGVHTFPAVLQSSGLYSLSSVVTVPSSSLGTQTYICNVNHKPSNTKVDKKVEPKSCDKTHTCPPCPAPEAAGGPSVFLFPPKPKDTLMISRTPEVTCVVVDVSHEDPEVKFNWYVDGVEVHNAKTKPREEQYASTYRVVSVLTVLHQDWLNGKEYKCKVSNKALPAPIEKTISKAKGQPREPQVYTLPPSRCELTKNQVSLSCAVKGFYPSDIAVEWESNGQPENNYKTTPPVLDSDGSFFLVSKLTVDKSRWQQGNVFSCSVMHEALHNHYTQKSLSLSPDYKDDDDK
chain: EPKSSDKTHTCPPCPAPELLGGPSVFLFPPKPKDTLMISRTPEVTCVVVDVSHEDPEVKFNWYVDGVEVHNAKTKPREEQYNSTYRVVSVLTVLHQDWLNGKEYKCKVSNKALPAPIEKTISKAKGQPREPQVCTLPPSRDELTKNQVSLWCLVKGFYPSDIAVEWESNGQPENNYKTTPPVLDSDGSFFLYSKLTVDKSRWQQGNVFSCSVMHEALHNRYTQKSLSLSP
light: DIVMTQSPLSLPVTPGEPASISCRSSQSLVHSNRNTYLHWYQQKPGQAPRLLIYKVSNRFSGVPDRFSGSGSGTDFTLKISRVEAEDVGVYYCGQGTQVPYTFGQGTKLEIKRTVAAPSVFIFPPSDEQLKSGTASVVCLLNNFYPREAKVQWKVDNALQSGNSQESVTEQDSKDSTYSLSSTLTLSKADYEKHKVYACEVTHQGLSSPVTKSFNRGEC

- ratio of amounts bound (altered form / CE115HA000): 0.63
B2: CE115HA000 N31W one-arm antibody (antibody, human IgG1, kappa, L234A L235A, N297A, name in Kabat numbering)
heavy: B1 heavy with N31W, S54K
chain: B1 chain
light: B1 light

- ratio of amounts bound (altered form / CE115HA000): 0.83
B3: CE115HA000 N53S one-arm antibody (antibody, human IgG1, kappa, L234A L235A, N297A, name in Kabat numbering)
heavy: B1 heavy with S54K, N56S
chain: B1 chain
light: B1 light

- ratio of amounts bound (altered form / CE115HA000): 0.49
B4: CE115HA000 N31Q one-arm antibody (antibody, human IgG1, kappa, L234A L235A, N297A, name in Kabat numbering)
heavy: B1 heavy with N31Q, S54K
chain: B1 chain
light: B1 light

- ratio of amounts bound (altered form / CE115HA000): 0.72
B5: CE115HA000 K64D one-arm antibody (antibody, human IgG1, kappa, L234A L235A, N297A, name in Kabat numbering)
heavy: B1 heavy with S54K, K67D
chain: B1 chain
light: B1 light

- ratio of amounts bound (altered form / CE115HA000): 0.89
B6: CE115HA000 K64Q one-arm antibody (antibody, human IgG1, kappa, L234A L235A, N297A, name in Kabat numbering)
heavy: B1 heavy with S54K, K67Q
chain: B1 chain
light: B1 light

- ratio of amounts bound (altered form / CE115HA000): 0.84
B7: CE115HA000 K75T one-arm antibody (antibody, human IgG1, kappa, L234A L235A, N297A, name in Kabat numbering)
heavy: B1 heavy with S54K, K78T
chain: B1 chain
light: B1 light

- ratio of amounts bound (altered form / CE115HA000): 0.39
B8: CE115HA000 N31G one-arm antibody (antibody, human IgG1, kappa, L234A L235A, N297A, name in Kabat numbering)
heavy: B1 heavy with N31G, S54K
chain: B1 chain
light: B1 light

- ratio of amounts bound (altered form / CE115HA000): 1.01
B9: CE115HA000 K75R one-arm antibody (antibody, human IgG1, kappa, L234A L235A, N297A, name in Kabat numbering)
heavy: B1 heavy with S54K, K78R
chain: B1 chain
light: B1 light

- ratio of amounts bound (altered form / CE115HA000): 0.78
B10: CE115HA000 N53K one-arm antibody (antibody, human IgG1, kappa, L234A L235A, N297A, name in Kabat numbering)
heavy: B1 heavy with S54K, N56K
chain: B1 chain
light: B1 light

- ratio of amounts bound (altered form / CE115HA000): 0.64
B11: CE115HA000 N31Y one-arm antibody (antibody, human IgG1, kappa, L234A L235A, N297A, name in Kabat numbering)
heavy: B1 heavy with N31Y, S54K
chain: B1 chain
light: B1 light

- ratio of amounts bound (altered form / CE115HA000): 0.81
B12: CE115HA000 N31S one-arm antibody (antibody, human IgG1, kappa, L234A L235A, N297A, name in Kabat numbering)
heavy: B1 heavy with N31S, S54K
chain: B1 chain
light: B1 light

- ratio of amounts bound (altered form / CE115HA000): 1.1
B13: CE115HA000 N53Q one-arm antibody (antibody, human IgG1, kappa, L234A L235A, N297A, name in Kabat numbering)
heavy: B1 heavy with S54K, N56Q
chain: B1 chain
light: B1 light

- ratio of amounts bound (altered form / CE115HA000): 0.5
B14: CE115HA000 N31A one-arm antibody (antibody, human IgG1, kappa, L234A L235A, N297A, name in Kabat numbering)
heavy: B1 heavy with N31A, S54K
chain: B1 chain
light: B1 light
notes: one-arm antibody: altered VH on pE22Hh, Fc-only chain Kn010G3, GLS3000 on kappa; the same build holds for m3 to m260

- ratio of amounts bound (altered form / CE115HA000): 0.37
B15: CE115HA000 N31D one-arm antibody (antibody, human IgG1, kappa, L234A L235A, N297A, name in Kabat numbering)
heavy: B1 heavy with N31D, S54K
chain: B1 chain
light: B1 light

- ratio of amounts bound (altered form / CE115HA000): 0.62
B16: CE115HA000 N31F one-arm antibody (antibody, human IgG1, kappa, L234A L235A, N297A, name in Kabat numbering)
heavy: B1 heavy with N31F, S54K
chain: B1 chain
light: B1 light

- ratio of amounts bound (altered form / CE115HA000): 0.63
B17: CE115HA000 N53Y one-arm antibody (antibody, human IgG1, kappa, L234A L235A, N297A, name in Kabat numbering)
heavy: B1 heavy with S54K, N56Y
chain: B1 chain
light: B1 light

- ratio of amounts bound (altered form / CE115HA000): 1.34
B18: CE115HA000 L78I one-arm antibody (antibody, human IgG1, kappa, L234A L235A, N297A, name in Kabat numbering)
heavy: B1 heavy with S54K, L81I
chain: B1 chain
light: B1 light

- ratio of amounts bound (altered form / CE115HA000): 0.5
B19: CE115HA000 N53G one-arm antibody (antibody, human IgG1, kappa, L234A L235A, N297A, name in Kabat numbering)
heavy: B1 heavy with S54K, N56G
chain: B1 chain
light: B1 light

- ratio of amounts bound (altered form / CE115HA000): 0.85
B20: CE115HA000 N54A one-arm antibody (antibody, human IgG1, kappa, L234A L235A, N297A, name in Kabat numbering)
heavy: B1 heavy with S54K, N57A
chain: B1 chain
light: B1 light

- ratio of amounts bound (altered form / CE115HA000): 0.7
B21: CE115HA000 N53A one-arm antibody (antibody, human IgG1, kappa, L234A L235A, N297A, name in Kabat numbering)
heavy: B1 heavy with S54K, N56A
chain: B1 chain
light: B1 light

- ratio of amounts bound (altered form / CE115HA000): 0.81
B22: CE115HA000 N31I one-arm antibody (antibody, human IgG1, kappa, L234A L235A, N297A, name in Kabat numbering)
heavy: B1 heavy with N31I, S54K
chain: B1 chain
light: B1 light

- ratio of amounts bound (altered form / CE115HA000): 0.88
B23: CE115HA000 N53W one-arm antibody (antibody, human IgG1, kappa, L234A L235A, N297A, name in Kabat numbering)
heavy: B1 heavy with S54K, N56W
chain: B1 chain
light: B1 light

- ratio of amounts bound (altered form / CE115HA000): 0.84
B24: CE115HA000 K64S one-arm antibody (antibody, human IgG1, kappa, L234A L235A, N297A, name in Kabat numbering)
heavy: B1 heavy with S54K, K67S
chain: B1 chain
light: B1 light

- ratio of amounts bound (altered form / CE115HA000): 0.74
B25: CE115HA000 K52bY one-arm antibody (antibody, human IgG1, kappa, L234A L235A, N297A, name in Kabat numbering)
heavy: B1 heavy with S54Y
chain: B1 chain
light: B1 light

- ratio of amounts bound (altered form / CE115HA000): 0.68
B26: CE115HA000 N53I one-arm antibody (antibody, human IgG1, kappa, L234A L235A, N297A, name in Kabat numbering)
heavy: B1 heavy with S54K, N56I
chain: B1 chain
light: B1 light

- ratio of amounts bound (altered form / CE115HA000): 0.39
B27: CE115HA000 N53D one-arm antibody (antibody, human IgG1, kappa, L234A L235A, N297A, name in Kabat numbering)
heavy: B1 heavy with S54K, N56D
chain: B1 chain
light: B1 light

- ratio of amounts bound (altered form / CE115HA000): 1.01
B28: CE115HA000 N31K one-arm antibody (antibody, human IgG1, kappa, L234A L235A, N297A, name in Kabat numbering)
heavy: B1 heavy with N31K, S54K
chain: B1 chain
light: B1 light

- ratio of amounts bound (altered form / CE115HA000): 0.76
B29: CE115HA000 N53H one-arm antibody (antibody, human IgG1, kappa, L234A L235A, N297A, name in Kabat numbering)
heavy: B1 heavy with S54K, N56H
chain: B1 chain
light: B1 light

- ratio of amounts bound (altered form / CE115HA000): 0.82
B30: CE115HA000 K64A one-arm antibody (antibody, human IgG1, kappa, L234A L235A, N297A, name in Kabat numbering)
heavy: B1 heavy with S54K, K67A
chain: B1 chain
light: B1 light

- ratio of amounts bound (altered form / CE115HA000): 0.74
B31: CE115HA000 K64E one-arm antibody (antibody, human IgG1, kappa, L234A L235A, N297A, name in Kabat numbering)
heavy: B1 heavy with S54K, K67E
chain: B1 chain
light: B1 light

- ratio of amounts bound (altered form / CE115HA000): 1.14
B32: CE115HA000 N31R one-arm antibody (antibody, human IgG1, kappa, L234A L235A, N297A, name in Kabat numbering)
heavy: B1 heavy with N31R, S54K
chain: B1 chain
light: B1 light

- ratio of amounts bound (altered form / CE115HA000): 0.68
B33: CE115HA000 N31H one-arm antibody (antibody, human IgG1, kappa, L234A L235A, N297A, name in Kabat numbering)
heavy: B1 heavy with N31H, S54K
chain: B1 chain
light: B1 light
